Measured values taken from patent US12357692B2, “Method of treating influenza A” (MEDIMMUNE, LLC, priority 2016, dated 2025).

Tests used:
[1] = in vivo
[2] = Anti-drug antibody (ADA) responses in serum, electrochemiluminescent solution-phase bridging immunoassay; assay type: in vivo, human; conditions: Days 15, 29 and 101 after single IV dose
Text: Blood samples were collected at Days 15(±1), 29(±2) and 101(±5) to evaluate anti-drug antibody (ADA) responses to MEDI8852 in serum using an electrochemiluminescent, solution-phase, bridging immunoassay. All ADA results were negative (i.e., no anti-drug antibody was found).

[3] = test system: influenza A virus infection; conditions: human, in vivo, iv

With “MEDI8852: human IgG1 kappa monoclonal antibody that binds the conserved stalk region of influenza HA protein; VH SEQ ID NO:2, VL SEQ ID NO:7” as the substance, how does the “half-life following a single IV dose” value ([1]; human, iv) read?
The value was 19.4 to 22.6 days.

And the PK dose linearity [1]?
Its PK dose linearity is “dose-linear”.

And the “anti-drug antibody (ADA) results” value [2]?
Its value is “negative”.

And the efficacy [3]?
Its efficacy is “better than oseltamivir alone”.
